Measured values reported in PMC10694151, “Regulation of the cell division hydrolase RipC by the FtsEX system in Mycobacterium tuberculosis” (Nature Communications, 2023).

Biological target: T1, RipC (Rv2190c) of Mycobacterium tuberculosis, construct RipCΔ33 (Mycobacterium tuberculosis, UniProt P9WHU3 34-385)
T1 construct: also called MtbRipC; RipC∆33
T1 sequence: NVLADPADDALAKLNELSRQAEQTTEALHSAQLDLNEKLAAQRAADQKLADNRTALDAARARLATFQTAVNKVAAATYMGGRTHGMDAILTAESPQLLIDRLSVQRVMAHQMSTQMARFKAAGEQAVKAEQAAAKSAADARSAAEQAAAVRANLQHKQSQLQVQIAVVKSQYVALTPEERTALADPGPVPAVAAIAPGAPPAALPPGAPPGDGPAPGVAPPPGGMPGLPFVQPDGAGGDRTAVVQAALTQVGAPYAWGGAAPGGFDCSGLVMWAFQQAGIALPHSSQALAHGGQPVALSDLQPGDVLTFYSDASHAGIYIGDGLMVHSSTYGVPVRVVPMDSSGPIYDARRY
Assay: cryo-EM structure; FtsEX or FtsEX-RipC in peptidiscs, 3 mg/ml, ATP-free
Conditions: both partners purified

B1: FtsX (Rv3101c) of Mycobacterium tuberculosis (natural protein)
chain: MRFGFLLNEVLTGFRRNVTMTIAMILTTAISVGLFGGGMLVVRLADSSRAIYLDRVESQVFLTEDVSANDSSCDTTACKALREKIETRSDVKAVRFLNRQQAYDDAIRKFPQFKDVAGKDSFPASFIVKLENPEQHKDFDTAMKGQPGVLDVLNQKELIDRLFAVLDGLSNAAFAVALVQAIGAILLIANMVQVAAYTRRTEIGIMRLVGASRWYTQLPFLVEAMLAATMGVGIAVAGLMVVRALFLENALNQFYQANLIAKVDYADILFITPWLLLLGVAMSGLTAYLTLRLYVRR
notes: also called MtbFtsX
  binding result: binds
